Experimental data reported in paper PMC3581573 (2013).

Target: Recombinant Flag-tagged human PRMT5 (Homo sapiens (Human), UniProt O14744)
Assay: anti-Flag pulldown with immunoblot

Chain of Recombinant Flag-tagged human PRMT5 (O14744 whole entry): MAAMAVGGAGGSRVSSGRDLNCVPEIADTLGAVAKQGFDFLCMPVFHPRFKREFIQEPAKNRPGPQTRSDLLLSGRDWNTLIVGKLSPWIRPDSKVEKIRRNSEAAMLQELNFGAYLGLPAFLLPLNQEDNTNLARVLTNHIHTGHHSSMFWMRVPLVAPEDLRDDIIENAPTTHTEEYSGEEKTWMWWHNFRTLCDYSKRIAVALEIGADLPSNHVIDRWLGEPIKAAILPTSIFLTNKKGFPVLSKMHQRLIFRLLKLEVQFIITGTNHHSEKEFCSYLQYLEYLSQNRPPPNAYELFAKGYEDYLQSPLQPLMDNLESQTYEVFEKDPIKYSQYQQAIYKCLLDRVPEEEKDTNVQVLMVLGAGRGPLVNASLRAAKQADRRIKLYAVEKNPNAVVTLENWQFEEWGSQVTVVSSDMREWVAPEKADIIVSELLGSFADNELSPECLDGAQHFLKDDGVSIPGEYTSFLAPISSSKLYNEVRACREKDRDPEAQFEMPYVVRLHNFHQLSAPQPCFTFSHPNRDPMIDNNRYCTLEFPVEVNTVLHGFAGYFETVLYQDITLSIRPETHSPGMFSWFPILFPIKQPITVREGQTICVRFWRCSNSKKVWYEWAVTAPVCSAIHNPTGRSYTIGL

binding result: binds
B1: Recombinant Xenopus laevis MEP50 alone (protein)
chain: MSKGSAWGRPVTAPACMEVQIGAVRYRRDGALLLAASSLSSRTWGGSIWVFKDPEGAPNESLCTAGVQTEAGVTDVAWVSEKGILVASDSGAVELWEILEKESLLVNKFAKYEHDDIVKTLSVFSDGTQAVSGGKDFSVKVWDLSQKAVLKSYNAHSSEVNCVAACPGKDTIFLSCGEDGRILLWDTRKPKPATRIDFCASDTIPTSVTWHPEKDDTFACGDETGNVSLVNIKNPDSAQTSAVHSQNITGLAYSYHSSPFLASISEDCTVAVLDADFSEVFRDLSHRDFVTGVAWSPLDHSKFTTVGWDHKVLHHHLPSEGRTENLIATKAED
